Measured values taken from publication doi:10.1101/498865.
Read-outs that look alike come from different tables or passages of the source.

Tests used:
Test in all cases: other fluorescence titration
[1] = target: CyPet-Myo1^IQ12-YPet FRET reporter protein (S. pombe)
[2] = target: CyPet-Myo1^IQ1-YPet FRET reporter protein (S. pombe)
[3] = target: CyPet-Myo1^IQ12-S742D-YPet FRET reporter protein (S. pombe)
[4] = target: CyPet-Myo1^IQ12-YPet FRET reporter protein (S. pombe); remark: listed apart in the source
[5] = target: CyPet-Myo1^IQ1-YPet FRET reporter protein (S. pombe); remark: listed apart in the source

Sequence of Cam1 (fission yeast calmodulin), amino-terminally acetylated (P05933 whole entry): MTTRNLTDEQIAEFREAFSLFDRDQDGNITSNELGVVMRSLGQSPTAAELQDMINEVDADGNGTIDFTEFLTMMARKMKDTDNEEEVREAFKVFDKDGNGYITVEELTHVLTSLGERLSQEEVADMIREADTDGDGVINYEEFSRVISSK

Molecule	KD of the first binding event [1]	KD of the second binding event [1]	Kd [2]	Kd [3]	stoichiometry N [3]	KD of the phase with 70% of the signal change [4]	stoichiometry N [4]	Kd [5]
Cam1 (fission yeast calmodulin), amino-terminally acetylated (from UniProt P05933 1-150) (natural protein)	< 100 nM	680 nM	< 100 nM					
Cam2 (fission yeast calmodulin-like protein) (natural protein) MPASKEQTDEMKEAFVLYDIDKDGLIPTSHVGSVLRSLGINVTDAELAKLSNELGDAIDEKKFMSFVSNKLRETESEEEYIKAFRVFDKDNSGYIETAKFADYMKTLGEKLSDNEVQLMVQEADPTNSGSFDYYDFVQRIMAK				250 nM	1	1100 nM	2	400 nM
